Laboratory results from publication PMC11203719, “Mts1 (S100A4) and Its Peptide Demonstrate Cytotoxic Activity in Complex with Tag7 (PGLYRP1) Peptide” (International Journal of Molecular Sciences, 2024).

Target: T1, Tag7 (PGLYRP1) protein, recombinant (UniProt O88593)
T1 sequence (O88593 1-182, species assumed, looked up): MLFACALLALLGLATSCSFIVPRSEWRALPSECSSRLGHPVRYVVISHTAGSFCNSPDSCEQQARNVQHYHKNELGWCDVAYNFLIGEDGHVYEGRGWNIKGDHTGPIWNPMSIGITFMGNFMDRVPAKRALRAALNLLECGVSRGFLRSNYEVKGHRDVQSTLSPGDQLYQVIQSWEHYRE
Assay: MST; Tag7 labelled with Alexa Fluor 488 (200 nM), preincubated 20 min in the dark at room temperature with 16 concentrations of M7; Monolith NT.115, 10% IR laser power

Binder ELPSFLGKRTDEAAFQK [M7 peptide of Mts1 (S100A4)] has a Kd of 2.96 nM.
